Biological target: RPA-DBD-D-Cy3;Rtt105-Cy5 (C13S) C13S (Saccharomyces cerevisiae;Saccharomyces cerevisiae?) (UniProt P22336+P26754+P26755+P40063)
Assay: FRET titration

RPA-DBD-D-Cy3;Rtt105-Cy5 (C13S) C13S (Saccharomyces cerevisiae;Saccharomyces cerevisiae?), sequence (P22336 whole entry, chain 1 of 4): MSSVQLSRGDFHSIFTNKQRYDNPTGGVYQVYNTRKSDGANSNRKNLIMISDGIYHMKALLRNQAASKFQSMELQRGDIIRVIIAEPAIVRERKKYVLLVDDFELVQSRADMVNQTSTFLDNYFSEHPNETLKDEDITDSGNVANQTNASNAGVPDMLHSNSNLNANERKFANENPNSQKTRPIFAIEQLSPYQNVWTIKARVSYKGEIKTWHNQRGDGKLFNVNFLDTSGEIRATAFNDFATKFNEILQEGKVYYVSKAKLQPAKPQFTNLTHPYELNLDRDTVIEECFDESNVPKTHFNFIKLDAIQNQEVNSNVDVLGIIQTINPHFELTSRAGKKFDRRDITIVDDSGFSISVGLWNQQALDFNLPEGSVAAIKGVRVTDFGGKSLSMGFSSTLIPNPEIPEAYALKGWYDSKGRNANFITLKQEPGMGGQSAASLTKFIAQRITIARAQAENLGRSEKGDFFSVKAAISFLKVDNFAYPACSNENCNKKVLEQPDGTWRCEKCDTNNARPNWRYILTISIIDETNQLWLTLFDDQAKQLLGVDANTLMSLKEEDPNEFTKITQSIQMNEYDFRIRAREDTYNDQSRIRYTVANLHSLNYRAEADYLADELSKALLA
RPA-DBD-D-Cy3;Rtt105-Cy5 (C13S) C13S (Saccharomyces cerevisiae;Saccharomyces cerevisiae?), sequence (P26754 whole entry, chain 2 of 4): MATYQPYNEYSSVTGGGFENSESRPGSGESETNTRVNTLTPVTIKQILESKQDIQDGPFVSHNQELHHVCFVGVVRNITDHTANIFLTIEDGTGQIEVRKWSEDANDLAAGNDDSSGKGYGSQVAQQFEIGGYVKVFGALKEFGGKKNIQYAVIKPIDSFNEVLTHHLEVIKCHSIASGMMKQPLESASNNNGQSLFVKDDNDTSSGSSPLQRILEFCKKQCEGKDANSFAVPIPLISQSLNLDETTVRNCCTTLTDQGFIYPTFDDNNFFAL
RPA-DBD-D-Cy3;Rtt105-Cy5 (C13S) C13S (Saccharomyces cerevisiae;Saccharomyces cerevisiae?), sequence (P26755 whole entry, chain 3 of 4): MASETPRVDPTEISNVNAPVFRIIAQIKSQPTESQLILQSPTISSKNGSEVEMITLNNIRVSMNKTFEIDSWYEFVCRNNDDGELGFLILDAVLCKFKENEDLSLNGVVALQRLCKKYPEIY
RPA-DBD-D-Cy3;Rtt105-Cy5 (C13S) C13S (Saccharomyces cerevisiae;Saccharomyces cerevisiae?), sequence (P40063 whole entry C13S, chain 4 of 4): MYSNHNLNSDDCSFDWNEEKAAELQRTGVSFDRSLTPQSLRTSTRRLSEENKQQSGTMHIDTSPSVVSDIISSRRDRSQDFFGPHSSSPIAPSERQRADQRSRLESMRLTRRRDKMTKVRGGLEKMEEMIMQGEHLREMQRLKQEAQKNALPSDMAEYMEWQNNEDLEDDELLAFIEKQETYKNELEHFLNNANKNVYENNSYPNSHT

| Sequence | K half |
| --- | --- |
| TTTTTTTTTTTTTTTTTTTTTTTTTTTTTTTTTTTTTTTTTTTTTTTTTTTTTTTTTTTTTTTTTTTTTT [(dT)70] | 42.8 nM |
| TTTTTTTTTTTTTTTTTTTTTTTTTTTTTTTTTTT [(dT)35] | 130 nM |

Reference: paper doi:10.1101/2022.02.05.479199
